# Patent EP2133098A1 (Maxygen Holdings Ltd, dated 2009)
# T1: human G-CSF receptor (human, UniProt Q99062 25-836)
# T1 sequence (looked up): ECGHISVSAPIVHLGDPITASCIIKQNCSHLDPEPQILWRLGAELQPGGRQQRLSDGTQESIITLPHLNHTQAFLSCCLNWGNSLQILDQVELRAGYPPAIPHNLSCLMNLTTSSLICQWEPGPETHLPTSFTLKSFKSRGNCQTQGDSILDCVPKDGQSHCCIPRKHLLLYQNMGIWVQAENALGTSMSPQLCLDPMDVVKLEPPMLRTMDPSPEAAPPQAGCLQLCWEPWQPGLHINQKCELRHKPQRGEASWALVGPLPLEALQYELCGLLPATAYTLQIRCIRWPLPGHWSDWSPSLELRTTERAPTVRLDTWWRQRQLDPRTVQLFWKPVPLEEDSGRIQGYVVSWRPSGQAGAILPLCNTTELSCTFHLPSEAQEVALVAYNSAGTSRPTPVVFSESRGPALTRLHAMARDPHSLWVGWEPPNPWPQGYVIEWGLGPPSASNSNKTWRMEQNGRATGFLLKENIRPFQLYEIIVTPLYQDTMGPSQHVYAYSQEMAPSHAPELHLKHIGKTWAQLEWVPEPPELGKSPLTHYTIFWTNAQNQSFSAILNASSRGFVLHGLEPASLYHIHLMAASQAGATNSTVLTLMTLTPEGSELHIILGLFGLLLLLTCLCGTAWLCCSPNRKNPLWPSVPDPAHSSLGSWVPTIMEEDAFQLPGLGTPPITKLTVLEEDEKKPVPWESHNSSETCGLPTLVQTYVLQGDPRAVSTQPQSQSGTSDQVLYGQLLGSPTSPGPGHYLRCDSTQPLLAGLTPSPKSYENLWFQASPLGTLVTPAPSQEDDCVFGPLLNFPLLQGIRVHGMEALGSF
# Biological target: T1, human G-CSF receptor
# Test: cell-based or functional assay
row,Binder,EC50 (% of hG-CSF) conjugated to SPA-PEG 5000
1,"SPA-PEG 5000-conjugated hG-CSF K16R K34R K40R Q70K Q120K (ligand, SPA-PEG 5000 on the available PEGylation sites) TPLGPASSLPQSFLLRCLEQVRKIQGDGAALQERLCATYRLCHPEELVLLGHSLGIPWAPLSSCPSQALKLAGCLSQLHSGLFLYQGLLQALEGISPELGPTLDTLQLDVADFATTIWQKMEELGMAPALQPTQGAMPAFASAFQRRAGGVLVASHLQSFLEVSYRVLRHLAQP",15 % of hG-CSF
2,"SPA-PEG 5000-conjugated hG-CSF K16R K34R K40R Q70K Q120K T133K (ligand, SPA-PEG 5000 on the available PEGylation sites) TPLGPASSLPQSFLLRCLEQVRKIQGDGAALQERLCATYRLCHPEELVLLGHSLGIPWAPLSSCPSQALKLAGCLSQLHSGLFLYQGLLQALEGISPELGPTLDTLQLDVADFATTIWQKMEELGMAPALQPKQGAMPAFASAFQRRAGGVLVASHLQSFLEVSYRVLRHLAQP",5 % of hG-CSF
3,"SPA-PEG 5000-conjugated hG-CSF K16R K34R K40R Q90K Q120K T133K (ligand, SPA-PEG 5000 on the available PEGylation sites) TPLGPASSLPQSFLLRCLEQVRKIQGDGAALQERLCATYRLCHPEELVLLGHSLGIPWAPLSSCPSQALQLAGCLSQLHSGLFLYQGLLKALEGISPELGPTLDTLQLDVADFATTIWQKMEELGMAPALQPKQGAMPAFASAFQRRAGGVLVASHLQSFLEVSYRVLRHLAQP",5 % of hG-CSF

# Next, values leading:
row,EC50 (% of hG-CSF) conjugated to SPA-PEG 5000,Binder
1,10 % of hG-CSF,"SPA-PEG 5000-conjugated hG-CSF K16R K34R K40R Q70K Q90K Q120K (ligand, SPA-PEG 5000 on the available PEGylation sites) TPLGPASSLPQSFLLRCLEQVRKIQGDGAALQERLCATYRLCHPEELVLLGHSLGIPWAPLSSCPSQALKLAGCLSQLHSGLFLYQGLLKALEGISPELGPTLDTLQLDVADFATTIWQKMEELGMAPALQPTQGAMPAFASAFQRRAGGVLVASHLQSFLEVSYRVLRHLAQP"
2,2 % of hG-CSF,"SPA-PEG 5000-conjugated hG-CSF K16R K34R K40R Q70K Q90K T105K (ligand, SPA-PEG 5000 on the available PEGylation sites) TPLGPASSLPQSFLLRCLEQVRKIQGDGAALQERLCATYRLCHPEELVLLGHSLGIPWAPLSSCPSQALKLAGCLSQLHSGLFLYQGLLKALEGISPELGPTLDKLQLDVADFATTIWQQMEELGMAPALQPTQGAMPAFASAFQRRAGGVLVASHLQSFLEVSYRVLRHLAQP"

# Biological target: T1, human G-CSF receptor
# Test: cell-based or functional assay
# Remark: another data set of the same source
"EC50, BaF3/hGCSF-R/pfos-lux luciferase assay [nM]",in vitro EC50 (% of non-conjugated hG-CSF (Neupogen)),Binder
0.03,–,non-conjugated hG-CSF (Neupogen) (ligand) TPLGPASSLPQSFLLKCLEQVRKIQGDGAALQEKLCATYKLCHPEELVLLGHSLGIPWAPLSSCPSQALQLAGCLSQLHSGLFLYQGLLQALEGISPELGPTLDTLQLDVADFATTIWQQMEELGMAPALQPTQGAMPAFASAFQRRAGGVLVASHLQSFLEVSYRVLRHLAQP
–,10 % of non-conjugated hG-CSF (Neupogen),"SPA-PEG 12000-conjugated hG-CSF K16R K34R K40R (ligand, SPA-PEG 12000; mainly 2 and 3 PEG groups attached) TPLGPASSLPQSFLLRCLEQVRKIQGDGAALQERLCATYRLCHPEELVLLGHSLGIPWAPLSSCPSQALQLAGCLSQLHSGLFLYQGLLQALEGISPELGPTLDTLQLDVADFATTIWQQMEELGMAPALQPTQGAMPAFASAFQRRAGGVLVASHLQSFLEVSYRVLRHLAQP"
–,1 % of non-conjugated hG-CSF (Neupogen),"SPA-PEG 20000-conjugated hG-CSF K16R K34R K40R (ligand, SPA-PEG 20000) TPLGPASSLPQSFLLRCLEQVRKIQGDGAALQERLCATYRLCHPEELVLLGHSLGIPWAPLSSCPSQALQLAGCLSQLHSGLFLYQGLLQALEGISPELGPTLDTLQLDVADFATTIWQQMEELGMAPALQPTQGAMPAFASAFQRRAGGVLVASHLQSFLEVSYRVLRHLAQP"
–,35 % of non-conjugated hG-CSF (Neupogen),"SPA-PEG 5000-conjugated hG-CSF K16R K34R K40R (ligand, SPA-PEG 5000 on the available PEGylation sites) TPLGPASSLPQSFLLRCLEQVRKIQGDGAALQERLCATYRLCHPEELVLLGHSLGIPWAPLSSCPSQALQLAGCLSQLHSGLFLYQGLLQALEGISPELGPTLDTLQLDVADFATTIWQQMEELGMAPALQPTQGAMPAFASAFQRRAGGVLVASHLQSFLEVSYRVLRHLAQP"
